Assay results reported in article PMC11576762.

Target: human TPC1 with C-terminal mVenus (human) (UniProt Q9ULQ1)
Assay: FRET or BRET; Two-hybrid FRET in live HEK293 cells; donor mTq2 constructs (0.7 µg DNA), acceptor mVenus constructs (1.5 µg DNA); confocal imaging, regions of interest around mVenus-positive lysosomes; maximum FRET efficiency from two-hybrid curves; no apilimod

FRET efficiency: 29%
Substance: mTq2-Rab5 (from UniProt P20339 1-215) (natural protein)
